Results: patent US20230295324A1 (published 2023)
Numbering of substitutions follows the chain as printed.

T1: human OX40 on cells (CHO-K1/hu OX40) (human, UniProt P43489 29-277)
T1 construct: whole, on cells; Also used here for OX40 on the HEK293/OX40/NF-kb reporter cells and on human T cells in the functional assays; also called CHO-K1/OX40; human OX40 cells
T1 sequence (looked up): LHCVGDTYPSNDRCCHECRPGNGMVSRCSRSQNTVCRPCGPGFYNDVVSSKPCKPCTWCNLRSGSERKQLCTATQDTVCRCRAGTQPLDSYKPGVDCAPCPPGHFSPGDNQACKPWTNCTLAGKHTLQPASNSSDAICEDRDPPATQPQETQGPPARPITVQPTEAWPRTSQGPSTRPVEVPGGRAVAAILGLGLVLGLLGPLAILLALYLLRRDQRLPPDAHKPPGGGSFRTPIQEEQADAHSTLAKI

T2: human OX40 protein (Acro biosystem, #OX0-H5224) (human, UniProt P43489 29-216)
T2 construct: Bought recombinant protein
T2 sequence (looked up): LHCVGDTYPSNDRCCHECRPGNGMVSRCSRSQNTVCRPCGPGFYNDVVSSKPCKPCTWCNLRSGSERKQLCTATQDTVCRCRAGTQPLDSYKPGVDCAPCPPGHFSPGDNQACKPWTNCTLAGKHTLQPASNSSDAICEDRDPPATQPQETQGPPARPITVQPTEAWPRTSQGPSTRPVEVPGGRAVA

B1: PR002063 (antibody, human IgG1, V domains shown)
VH: EVQLLESGGGLVQPGGSLRLSCAASGFTFSSYAMSWVRQAPGRGLEWVSAISGGGGSTFYADSVRGRFTISRDNSKNTLYLQMSSLRAEDTAVYYCANGMTGTTDVDYWGQGTRVTVSS
notes: no light chain; also called anti-OX40 HCAb antibody
B2: PR002071 (antibody, human IgG1, V domains shown)
VH: B1 VH with L5V, R43K, T58I, S84N, R114L
notes: as for B1
B3: PR002072 (antibody, human IgG1, V domains shown)
VH: B1 VH with P41S, R43K, V48I, G54S, F59Y, S84N, E89D, Y108F, R114P
notes: as for B1
B4: PR002077 (antibody, human IgG1, V domains shown)
VH: B1 VH with R43K, G54R, G56N, S57I, S84N, M100I, R114L
notes: as for B1
B5: PR002076 (antibody, human IgG1, V domains shown)
VH: B1 VH with R43K, G54S, S57N, F59Y, S84N
notes: as for B1
B6: PR002065 (antibody, human IgG1, V domains shown)
VH: B1 VH with L5V, R43K, G54R, G56D, S57I, S84N, V93L, T103S, Y108F, R114L
notes: as for B1
B7: PR002074 (antibody, human IgG1, V domains shown)
VH: EVQLLESGGGLVQPGGSLRLSCAASGFTFSSYAMSWVRQAPGKGLEWVSGISGGGNNTFYADSVRGRFTISRDNSKNTLYLQMNSLRAEDTAVYYCMRGWELPLLENWGQGTLVTVSS
notes: as for B1
B8: PR002058 (antibody, human IgG1, V domains shown)
VH: EVQLLESGGGLVQPGGSLRLSCAASGFTFSSYAMSWVRQAPGKGLEWVSAISGGSGSTFYADSVRGRFTISRDNSKNTLYLQMNSLRAEDTAVYYCADGVTGTDFDFWGQGTLVTVSS
notes: as for B1
B9: PR002073 (antibody, human IgG1, V domains shown)
VH: B8 VH with L5V
notes: as for B1
B10: Pogalizumab analog (PR003475) (antibody, human IgG1, kappa, V domains shown)
VH: EVQLVQSGAEVKKPGASVKVSCKASGYTFTDSYMSWVRQAPGQGLEWIGDMYPDNGDSSYNQKFRERVTITRDTSTSTAYLELSSLRSEDTAVYYCVLAPRWYFSVWGQGTLVTVSS
VL: DIQMTQSPSSLSASVGDRVTITCRASQDISNYLNWYQQKPGKAPKLLIYYTSRLRSGVPSRFSGSGSGTDFTLTISSLQPEDFATYYCQQGHTLPPTFGQGTKVEIKR
notes: Conventional IgG antibody; also called Tab

These binders were tested against T1, human OX40 on cells (CHO-K1/hu OX40) (assay: FACS, CHO-K1/hu OX40 cells).
Protocol: This example is intended to investigate the in vitro binding activity of anti-human OX40 HCAb monoclonal antibodies to human OX40. The antibody binding assay at the cellular level was performed using a stable CHO-K1 cell strain overexpressing human OX40 (CHO-K1/hu OX40). Briefly, the CHO-K1/hu OX40 cells were digested, resuspended in an F12K complete medium and washed once with PBS. The cell density was adjusted to 1×10⁶ cells/mL with PBS. The cells were seeded in a 96-well V-bottom plate (Corning, #3894) at 100 μL/well, and centrifuged, and then the supernatant was discarded. Then, the test antibodies diluted in a 3-fold gradient at concentrations that were 2 times the final concentrations were added at 100 μL/well. The cells were incubated at 4° C. for 1 h away from light. Thereafter, the cells in each well were rinsed twice with 100 μL of pre-cooled PBS, and centrifuged at 500 g at 4° C. for 5 min, and then the supernatant was discarded. […] The plate was incubated away from light at 4° C. for 30 min. The cells in each well were rinsed twice with 100 μL of pre-cooled PBS, and centrifuged at 500 g at 4° C. for 5 min, and then the supernatant was discarded. Finally, the cells in each well were resuspended in 200 μL of pre-cooled PBS, and the fluorescence signal values were read using a BD FACS CANTOII.

EC50	Maximum MFI	Binder
9 nM	2240 MFI	B1
4 nM	3060 MFI	B2
5.64 nM	1400 MFI	B3
7.22 nM	3980 MFI	B4
24.6 nM	1380 MFI	B5
3.82 nM	2860 MFI	B6
1.27 nM	3540 MFI	B7
5.79 nM	3560 MFI	B8
6.55 nM	3260 MFI	B9

Each binder was assayed against T1, human OX40 on cells (CHO-K1/hu OX40) (assay: FACS, blocking of biotin-human OX40L on CHO-K1/hu OX40 cells).
Protocol: Briefly, the CHO-K1/hu OX40 cells were digested and resuspended in an F-12K complete medium, and the cell density was adjusted to 1×10⁶ cells/mL. The cells were seeded in a 96-well V-bottom plate (Corning, #3894) at 100 μL/well, and centrifuged, and then the supernatant was discarded. The test antigen-binding proteins diluted in a 3-fold gradient at concentrations that were 2 times the final concentrations were added at 100 μL/well, and the mixture was well mixed, wherein the antigen-binding protein had the highest final concentration of 100 nM, and a total of 8 concentrations were obtained. […] The cells were incubated at 4° C. for 1 h away from light. Thereafter, the cells were centrifuged at 4° C. for 5 min, and then the supernatant was discarded. […] The cells in each well were rinsed twice with 100 μL of pre-cooled PBS, and centrifuged at 500 g at 4° C. for 5 min, and then the supernatant was discarded. A 1:200 fluorescent secondary antibody PE Streptavidin (BD Biosciences, #554061) was added at 100 μL/well, and the cells were incubated away from light at 4° C. for 30 min. The cells in each well were rinsed twice with 200 μL of pre-cooled PBS, and centrifuged at 500 g at 4° C. for 5 min, and then the supernatant was discarded. Finally, the cells in each well were resuspended in 200 μL of precooled PBS. Fluorescence signal values were read using BD FACS CANTOII, and IC50 was calculated. Inhibition rate %={average MFI of non-blocking control well−MFI value of OX40 antibody}/{(average MFI of non-blocking control well)−average MFI of 100% blocking control well)}×100%.

Maximum inhibition rate (%)	IC50	Binder
17%		B1
50%	51.7 nM	B2
14%		B3
34%	41.1 nM	B4
0%		B5
44%	49.6 nM	B6
81%	43.1 nM	B7
38%	98.1 nM	B8
24%	75.2 nM	B9

Each binder was assayed against T1, human OX40 on cells (CHO-K1/hu OX40) (assay: cell-based or functional assay).

EC50, HEK293/OX40/NF-kb luciferase reporter	Maximum fluorescence signal value, HEK293/OX40/NF-kb luciferase reporter	Binder
8.64 nM	150000 luminescence	B1
7.85 nM	144000 luminescence	B2
14.2 nM	99600 luminescence	B3
3.51 nM	113000 luminescence	B4
67 nM	141000 luminescence	B5
8.55 nM	149000 luminescence	B6
3.08 nM	84800 luminescence	B7
4.29 nM	136000 luminescence	B8
6.39 nM	121000 luminescence	B9

Each binder was assayed against T3, cynomolgus monkey OX40 protein (Novoprotein, #CB17) (cynomolgus monkey) (assay: BLI, antibody on ProA sensor, 1:1 global fit).
T3 construct: Bought recombinant protein; also called cyno OX40
Protocol: (§1) The binding kinetics between the antigen and the antibody was analyzed by the Biolayer Interferometry (BLI) technique using an Octet Red 96e molecular interaction analyzer (Fortebio).
(§2) The association and dissociation signals between the OX40 antibodies and OX40 proteins were recorded by Octet Red 96 in real time. When data analysis was performed using Octet Data Analysis software (Fortebio, version 11.0), 0 nM was used as a reference hole, and reference subtraction was performed; the “1:1 Global fitting” method was selected to fit the data, and the kinetics parameters of the binding of antigens to antigen-binding proteins were calculated, with kon(1/Ms) values, kdis(1/s) values and KD(M) values obtained.

Kd	koff	kon	Binder
53.4 nM	0.00192 s⁻¹	36000 M⁻¹ s⁻¹	B1
22.1 nM	0.000722 s⁻¹	32700 M⁻¹ s⁻¹	B4
33.7 nM	0.00104 s⁻¹	30800 M⁻¹ s⁻¹	B6
0.0894 nM			B10

What follows are binders tested against T2, human OX40 protein (Acro biosystem, …) (assay: BLI, antibody on ProA sensor, 1:1 global fit).
Protocol: as §1, §2

Kd	koff	kon	Binder
13 nM	0.000511 s⁻¹	39200 M⁻¹ s⁻¹	B1
10.6 nM	0.000364 s⁻¹	34300 M⁻¹ s⁻¹	B4
6.79 nM	0.000337 s⁻¹	49600 M⁻¹ s⁻¹	B6

Each binder was assayed against T3, cynomolgus monkey OX40 protein … (assay: ELISA, coated cyno OX40 protein).
Protocol: (§3) This example is intended to investigate the in vitro binding activity of the anti-OX40 HCAb monoclonal antibodies prepared in Example 1 to human and cynomolgus monkey OX40 proteins. The antibody binding assay at the protein level was performed using a human OX40 protein (Acro biosystem, #OX0-H5224) and a cynomolgus monkey OX40 protein (Novoprotein, #CB17). Briefly, a 384-well plate (PerkinElmer, #6007509) was coated with 1 μg/mL human OX40 protein and a cynomolgus monkey OX40 protein dissolved in PBS at 20 μL/well, and incubated at 4° C. overnight. The next day, the 384-well plate was washed three times with PBS containing 0.05% Tween (MEDICAGO, #09-9410-100), and blocked with PBS containing 2% milk (Bio-Rad, #170-6404) at 37° C. for 1 h. […] The plate was added with a stop buffer (BBI life sciences, #E661006-0200) at 20 μL/well, and read for OD₄₅₀₋₆₅₀ values using a plate reader (Molecular Devices, model: SpectraMax Plus). The values were analyzed with Graphad 8.0 and plotted.

EC50	Maximum OD	Binder
0.276 nM	2.32 OD	B1
0.202 nM	2.93 OD	B2
0.217 nM	2.97 OD	B3
0.441 nM	2.73 OD	B4
0.116 nM	2.05 OD	B5
0.103 nM	1.92 OD	B6
0.14 nM	2.34 OD	B7
0.0597 nM	1.76 OD	B8
0.146 nM	2.55 OD	B9
0.194 nM	2.23 OD	B10

Each binder was assayed against T2, human OX40 protein (Acro biosystem, …) (assay: ELISA, coated human OX40 protein).
Protocol: as §3

EC50	Maximum OD	Binder
0.101 nM	2.28 OD	B1
0.0502 nM	2.45 OD	B2
0.0577 nM	2.47 OD	B3
0.146 nM	2.67 OD	B4
0.065 nM	2.8 OD	B5
0.0639 nM	2.47 OD	B6
0.0512 nM	2.35 OD	B7
0.0629 nM	1.94 OD	B8
0.085 nM	2.38 OD	B9
